# Results reported in publication PMC7458460 (Science Advances, 2020).
# Molecular target: CN391 (CNA_(1–391)/CNB_(1–170)) (UniProt Q08209 1-391; P63098 1-170)
# Experiment: ITC
# CN391 (CNA_(1–391)/CNB_(1–170)), sequence (Q08209 1-391, chain 1 of 2): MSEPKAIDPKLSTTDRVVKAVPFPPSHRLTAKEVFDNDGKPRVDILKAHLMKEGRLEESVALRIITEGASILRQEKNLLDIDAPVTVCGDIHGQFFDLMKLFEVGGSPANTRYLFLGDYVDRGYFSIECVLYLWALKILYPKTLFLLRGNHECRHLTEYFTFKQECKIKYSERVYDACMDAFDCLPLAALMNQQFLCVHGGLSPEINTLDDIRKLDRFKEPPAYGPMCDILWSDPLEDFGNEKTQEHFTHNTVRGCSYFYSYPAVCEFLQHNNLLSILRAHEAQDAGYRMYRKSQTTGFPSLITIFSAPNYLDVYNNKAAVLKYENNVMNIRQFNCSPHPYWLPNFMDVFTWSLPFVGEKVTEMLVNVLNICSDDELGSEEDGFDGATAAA
# CN391 (CNA_(1–391)/CNB_(1–170)), sequence (P63098 whole entry, chain 2 of 2): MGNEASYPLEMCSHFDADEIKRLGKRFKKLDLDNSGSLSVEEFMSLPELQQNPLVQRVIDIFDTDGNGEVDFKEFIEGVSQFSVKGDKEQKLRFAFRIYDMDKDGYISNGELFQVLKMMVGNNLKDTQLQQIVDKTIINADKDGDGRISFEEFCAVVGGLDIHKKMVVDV
Binder,Kd [nM],dH [kcal/mol]
RCAN1 CN-binding domain (residues 89 to 197) (domain or fragment) not shown,16 ± 5,-30.7 ± 0.8
"p38-phosphorylated RCAN1 (residues 89 to 197) (domain or fragment, pS108, pS112, pT124, pT153, pT192 (pT152 partially, much more slowly)) not shown",429 ± 85,-32.4 ± 1.6
